The experiment has as its target Lrh-1 (liver receptor homolog 1, Nr5a2) (mouse) (UniProt P45448). Description: cell-based or functional assay.
Chain of UniProt P45448 (P45448 whole entry): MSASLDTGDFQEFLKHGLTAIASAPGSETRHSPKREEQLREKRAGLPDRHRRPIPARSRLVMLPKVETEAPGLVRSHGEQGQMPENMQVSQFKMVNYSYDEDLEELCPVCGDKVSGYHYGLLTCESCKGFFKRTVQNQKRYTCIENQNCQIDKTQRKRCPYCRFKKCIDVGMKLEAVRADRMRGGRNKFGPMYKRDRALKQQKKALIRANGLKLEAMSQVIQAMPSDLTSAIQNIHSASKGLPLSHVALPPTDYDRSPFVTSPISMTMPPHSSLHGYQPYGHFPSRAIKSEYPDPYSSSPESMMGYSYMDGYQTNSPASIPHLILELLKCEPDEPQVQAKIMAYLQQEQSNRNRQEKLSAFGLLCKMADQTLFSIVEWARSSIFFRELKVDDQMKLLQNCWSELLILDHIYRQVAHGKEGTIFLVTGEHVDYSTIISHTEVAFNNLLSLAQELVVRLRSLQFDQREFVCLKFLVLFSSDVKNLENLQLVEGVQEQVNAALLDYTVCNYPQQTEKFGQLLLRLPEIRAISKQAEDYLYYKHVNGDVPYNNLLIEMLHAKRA

Regarding “Rarg (retinoic acid receptor gamma), full-length (from UniProt P18911 1-458)”, the luciferase reporter expression (luciferase cassette linked to the Oct4 promoter), fold increase on co-expression was in the range of 4 to 5 fold.
